Tested on: MS2 coat protein
Assay: apparent KD of MS2 coat protein; higher = weaker reporter binding
Details: Eterna round: R107
In short: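 Designed RNA switches were made by on-chip transcription from Illumina sequencing clusters and then titrated with SNAP-549-labelled MS2 coat protein. Twofold steps ran from 0.7 or 1.5 nM to 3 µM, each lasting 0.8–1.5 h early and 10–20 min late, in 100 mM Tris-HCl pH 7.5, 80 mM KCl, 4 mM MgCl2, without or with constant ligand. Apparent KD is the per-design median of normalised cluster binding-curve fits.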

[1] = input ligand: theophylline 20 uM
[2] = input ligand: theophylline 2 mM
[3] = input ligand: tryptophan 2.4 mM

Sequence | apparent KD of MS2 coat protein (input ligand: arginine 13.2 mM) | apparent KD of MS2 coat protein (input ligand: none) | apparent KD of MS2 coat protein [1] | apparent KD of MS2 coat protein [2] | apparent KD of MS2 coat protein [3]
AACGUAUACAGAAGGAGCGUGAAUUAUUUUAUUUUUUUAUAAACAUGAGGAUCACCCAUGUCACAGGUAGGUCGCUGUAUUCGUA [JR_ExcArginiB_Sub018] | 23.8 nM | 18.4 nM | 40.5 nM | 22.8 nM | 19.2 nM
UUCUGGUCCCGUGAUACCAGAGACAUGAGGAUCACCCAUGUACAUGAGGAUCACCCAUGUUUCCCUUGGCAGCACUGCAGUGAGC [Exclusion Theophylline B GF 15] | 56 nM | 261 nM | 160 nM | 332 nM | 147 nM
CGUGAUCCCUGUGAUACCAGAAGUACAUGAGGAUCACCCAUGUCAAACACAAAACCAAGCUUCCCUUGGCAGCAUAGUCGUUAAG [Esmaenbiza] | 67.1 nM | – | 240 nM | – | 224 nM
AAAGAUCGGAAACGAUCGGCGGCUUGGGCGCGAGGACCGGUACGGCCGCCACUCGGGAAACAUGAGGAUCACCCAUGUUGCUUCU [ETA NP+V+V2 #16] | 10 nM | – | 12.5 nM | 11.9 nM | –
AGUUAAAUAUGUUAAUAACUAUUUACUGAAGGAGCGUGUUUUUACACAGGUAGGUCGCAGUGACAUGAGGAUCACCCAUGUAGUA [JR_SSArginiA_Sub012] | 31.3 nM | 37.5 nM | 49.7 nM | 43.5 nM | 33.4 nM
ACAUGAGGAUCACCCAUGUACAUAAGGGAAGGAGCGCGGUGAAACGCAGGUAGGUCGCCCAUAAUAACAAUAAAUAAAUUCAUGU [LeftA1] | 19.8 nM | 13.5 nM | 21 nM | 19 nM | 15.8 nM
AAUCAUGGAAACAUGACAUGAGGGUUGCUCCGAGGACCGGUACGGCCGCCACUCGCGAGGAGGCGGACAUGAGGAUCACCCAUGU [#05 Tryptophan A Same State] | 40.3 nM | 252 nM | 280 nM | 328 nM | 68.2 nM
GACGAGUAGACGGCCGCCACUAUGCUGCGCAGCCCUAGAAACGCACAUGAGGAUCACCCAUGUCUUAGGACCGGGUCGAACUUAA [theeternabot_sameState_MS2_Trp_B_48] | 47.7 nM | – | 107 nM | 96.2 nM | –
GCCAUCGGCGGAAGCCGAUGGUAUACAGAAGGAGCGUAGGAAACUACAGGUAGGUCGCUGGACAUGAGGAUCACCCAUGUAAUAG [#27 Same State - Arginine A] | 22.2 nM | 15.2 nM | 26.7 nM | 17.5 nM | 21.8 nM
UGUAAAAUAACAGAUACCAGCGUGUUAUAAAACAUGAGGAUCACCCAUGUAGUGAUCAAGCGCCCUUGGCAGCUGGUAUUUUAUG [7.D] | 105 nM | – | 171 nM | – | 140 nM
CUGUACAUCUCGGCCGCCACUGCAACAUGUAGAGAUGUAUAUGUACAUGAGGAUCACCCAUGUGGCAGGACCGGGAGGUGUGCAG [SSTryp B #27] | 167 nM | 147 nM | 128 nM | 206 nM | 111 nM
UACUUGCUGACGGCCGCCACUAGAACAUGAGGAUCACCCAUGUAGGUCCUAGAUUCCUCAUGAACUAGGACCGGGUCAGCAAGAU [(Trp1)-(Ms2)-(T)'-(M)'-(Trp2)_Design15] | 53.7 nM | – | 201 nM | 221 nM | –
CUCAUCCACGCGGCCGCCACUAUAUUGUGGUGUGAGUGUGACGUAUUACAUGAGGAUCACCCAUGUAGGACCGGGCGUGGAUGAG [#06 Exclusion Tryptophan B] | 30.9 nM | – | 51.3 nM | 50.2 nM | –
AAAUACAUGAGGAUCACCCAUGUCAAUAAUCGAGGACCGGUACGGCCGCCACUCGAUCGGCCAAGAAAAUGAAAGAUGAUCUCUA [theeternabot_sameState_MS2_Trp_A_8] | 18.1 nM | – | 37.5 nM | 27.4 nM | –
GCCUAGCAGCGAAGGAGCGAGGUAACUUAAUAAAUAAAUACAAGAGGAUCACCCUUGUUUCCUCAGGUAGGUCGCGCUGCUAGGC [SSAB Alternative Aptamer #2 NP+V+V2] | 18.2 nM | 22.6 nM | 25.6 nM | 20.9 nM | 23.5 nM
UGAUCCUACAGAGAUACCAGUGCCGCUGAGUGACCAGACACAUGAGGAUCACCCAUGUAACACCCUUGGCAGCUCAACUAGAGGG [Same State Theophylline B GF19] | 12.8 nM | 18.4 nM | 18.7 nM | 98.7 nM | 22 nM
GGAACAUGAGGAUCACCCAUGUCGAGUGGUCGAGGACCGGUACGGCCGCCACUCGACAUUGCUCAUAGGUAUAGCGUGAGAACGC [Same State - Tryptophan 1] | 100 nM | 326 nM | 546 nM | 961 nM | 618 nM
ACAUGAGGAUCACCCAUGUAGUGGCACGAUACCAGCUGAUCCCGUGGCCCUUGGCAGCGUCCGGUGUGGUCUGCCGGGAUGGAGC [WBWMULLIN] | 25 nM | – | 40.7 nM | – | 24.8 nM
GAACAUAUGGAUACUAUUAUGAGCACAGAAGGAGCGAGCGGAAGCUCAGGUAGGUCGCUGGGUAACAUGAGGAUCACCCAUGUUG [XArg-A sub1] | 18.7 nM | 19.1 nM | 24.7 nM | 25.6 nM | 20.8 nM

Sequence | apparent KD of MS2 coat protein (input ligand: arginine 13.2 mM) | apparent KD of MS2 coat protein (input ligand: none) | apparent KD of MS2 coat protein [1] | apparent KD of MS2 coat protein [2] | apparent KD of MS2 coat protein [3]
UUUUUUUUGGGAAGGAGCGGGAACAUGUGGAUCUCCCAUGUACAUGAGGAUCACCCAUGUACCCAGGUAGGUCGCCCAUUUUUUU [Exclusion - Arginine B] | 69.5 nM | 102 nM | 94.7 nM | 112 nM | 66.2 nM
AGAGAUGAACAUGAGGAUCACCCAUGUAAACGAGGACCGGUACGGCCGCCACUCGUGGGUGUAAUAGAAUAAUAAGAGAAUAAUA [Turkey 1] | 24.4 nM | 63.2 nM | 92 nM | 59.6 nM | 75.5 nM
ACCAACCACACCCUUCACUGUUUUCGCCGCCGAGGACCGGUACGGCCGCCACUCGUACAAAGACAUGAGGAUCACCCAUGUGCCU [theeternabot_exclusion_MS2_Trp_A_7] | 14.8 nM | – | 20.3 nM | 20.4 nM | –
GGGCCCGGGCCCGCGCGGGCCCGGGCCCAACGAGGACCGGUACGGCCGCCACUCGAACGAGUGGGUACAUGAGGAUCACCCAUGU [Baa] | 38.6 nM | 30.7 nM | 55.9 nM | 48.6 nM | 33.4 nM
ACAUGAGGAUCACCCAUGUUCCUCAUUGAUACCAGUGAAUUUAGACGCCCUUGGCAGCGAGUUUAAGAAGAAGAAGUUUUUUUUU [6.C] | 124 nM | – | 819 nM | – | 875 nM
AUAUUACAUGUUAUUAUACGGUAUACUGAUACCAGUGUUUCUAUUCACCCUUGGCAGCAGCAACAUGAGGAUCACCCAUGUAUUA [JR_SSTheophyA_Sub018] | 15.6 nM | – | 19 nM | – | 18 nM
UAAACUACACAUGAGGAUCACCCAUGUGGCCGAGGACCGGUACGGCCGCCACUCGUGUGUUAAUAAAAGAACUGCAAGGUUCUUC [Uslausce] | 76.1 nM | – | 325 nM | 748 nM | –
GCAUCCUAGUCGGCCGCCACUGCGAAUAGGUCCUGAGUGAUCUAACAUGAGGAUCACCCAUGUAGCAGGACCGGGACUAGGAUGC [(Trp1)-(TM)''-(TM)'-(Ms2)-(Trp2)_Design5] | 12.8 nM | 16.5 nM | 22.3 nM | 23 nM | 17.3 nM
AGCACUGUGACGGCCGCCACUACAUAAAUUGGGUGGUCAGGUUCAUUACAUGAGGAUCACCCAUGUAGGACCGGGUCUCAGUGCA [Omei Trp Exc B A v8] | 15.9 nM | 11.4 nM | 20.6 nM | 13.3 nM | 7.33 nM
CGCCGCGCGGGAAGGAGCGCGAUUACAUAACAUGAGGAUCACCCAUGUAAGAAAUUAUUCAUGCAGGUAGGUCGCCCGCGCGGCG [Same State Arginine B GF 5] | 58.8 nM | 22.3 nM | 28.4 nM | 22.8 nM | 22.8 nM
AAUAUUAUGUCGGCCGCCACUUCCCACAAGAGGUGCCUGCACCCACAUGAGGAUCACCCAUGUCGAAGGACCGGGACGCUCAAUU [theeternabot_sameState_MS2_Trp_B_35] | 20.5 nM | – | 23.6 nM | 21.6 nM | –
GGAUUCAACUCGGCCGCCACUGGUGAUCCUAAUGUACAUGAGGAUCACCCAUGUACAUGAGAAUACAGGACCGGGAGAUAAGCAA [Tryptophan B V2 (+4A)] | 20.1 nM | – | 26.5 nM | 24 nM | –
AUAUGAUCAUGUGAUACCAGAAAUGGUAGUCCUCGCUGGAUUACAUGAGGAUCACCCAUGUUCCCUUGGCAGCAUAUGAUCAUAU [#02 Exclusion-TheophyllineB] | 50.5 nM | – | 122 nM | – | 60.9 nM
GAGUAGUAGACGGCCGCCACUAAACAUGAGGAUCACCCAUGUAGUGAUCCGUUACCUAGCGUAGAUAGGACCGGGUCAGAUAGUA [Exclusion Tryptophan B GF 14] | 21.6 nM | – | 31.7 nM | 25.9 nM | –
GUAUGGAAACAUACUAGGGUAUCGUGAGAUACCAGUACAGAAAUGUACCCUUGGCAGCUCGCGCAUACAUGAGGAUCACCCAUGU [Ex Theophylline A 9] | 19.4 nM | – | 26.9 nM | – | 19.7 nM
GGUUGGUGUAGAGAUAUAUUGAUUACUGAAGGAGCGGGAAGAAACCCAGGUAGGUCGCAGAGAUCCACAUGAGGAUCACCCAUGU [!0.L] | 26.7 nM | 38.6 nM | 49.5 nM | 59.3 nM | 27.5 nM
GGGUGCGGGAUAGAUACCAGUGCCUUAAAAUAGGCACAUGAGGAUCACCCAUGUACCGGGCGCCCUUGGCAGCUAGUACCAUCCA [Edanrele] | 93.9 nM | – | 190 nM | – | 147 nM
ACUAGAGGUGGAAGGAGCGGGAGACAUGAGGAUCACAUGAGGAUCACCCAUGUAGGAUCAUCCCAGGUAGGUCGCCAUGUCGAAA [,mmlmullin] | 46 nM | 979 nM | 255 nM | 456 nM | 293 nM
AGACAUGAGGAUCACCCAUGUAGUACGGAUACCAGAUCCAGAUGUAUCCCUUGGCAGCUGUGGUACAGCGUUACAUCGCUCCUAG [Exclusion - Theophylline A (Freestyle 20)] | 15.9 nM | – | 24.4 nM | – | 15.8 nM

Source: the supplement of paper PMC9170038
